Laboratory results taken from paper PMC7949081.

Target: Zn2+
Test: Zincon assay
Conditions: purified Vif complex denatured and deproteinated; metal ions measured in supernatant; parent: est. 1.3; read off a plot

Compared with “maedi–visna virus (MVV) Vif, WT, residues 1-230, N-terminal 6xHis tagged (from UniProt P69715) C135S”, “maedi–visna virus (MVV) Vif, WT, residues 1-230, N-terminal 6xHis tagged (from UniProt P69715) C137S” is lower in other: Zn2+:Protein Ratio: 0.09 for the first, 0.07 for the second.

Going from “maedi–visna virus (MVV) Vif, WT, residues 1-230, N-terminal 6xHis tagged (from UniProt P69715) C157S” to “maedi–visna virus (MVV) Vif, WT, residues 1-230, N-terminal 6xHis tagged (from UniProt P69715) C160S”, the other: Zn2+:Protein Ratio falls from 0.2 to 0.17.

First: maedi–visna virus (MVV) Vif, WT, residues 1-230, N-terminal 6xHis tagged (from UniProt P69715) C207S
Second: maedi–visna virus (MVV) Vif, WT, residues 1-230, N-terminal 6xHis tagged (from UniProt P69715) C222S
The other: Zn2+:Protein Ratio of the first is higher: 0.93 for the first, 0.77 for the second.

Going from “maedi–visna virus (MVV) Vif, WT, residues 1-230, N-terminal 6xHis tagged (from UniProt P69715) H7N” to “maedi–visna virus (MVV) Vif, WT, residues 1-230, N-terminal 6xHis tagged (from UniProt P69715) H129N”, the other: Zn2+:Protein Ratio falls from 1.2 to 0.92.

First: maedi–visna virus (MVV) Vif, WT, residues 1-230, N-terminal 6xHis tagged (from UniProt P69715) H152N
Second: maedi–visna virus (MVV) Vif, WT, residues 1-230, N-terminal 6xHis tagged (from UniProt P69715) H181N
The other: Zn2+:Protein Ratio of the first is lower: 0.97 for the first, 1.2 for the second.

With “maedi–visna virus (MVV) Vif, WT, residues 1-230, N-terminal 6xHis tagged (from UniProt P69715) H186N” the other: Zn2+:Protein Ratio was 1.1.
